{"source": "paper PMC12126490", "about": "“The HP1 box of KAP1 organizes HP1α for silencing of endogenous retroviral elements in embryonic stem cells” (Nature Communications, 2025)", "key": {"[1]": {"tested_on": "endogenous HP1α in KAP1^−/− ESCs", "test": "immunofluorescence of endogenous HP1α", "format": "cell-based", "conditions": "KAP1^−/− mouse ESCs stably expressing the GFP-labeled construct, anti-HP1α antibody, DAPI", "procedure": "The constructs coding for GFP-KAP1RF and the P486A/V488A/L490A mutant were transfected into 1 ×10^5 KAP1^−/− mouse ESCs using Lipofectamine 3000 (Invitrogen). Forty-eight hours post-transfection, cells were trypsinized and plated at a colony density in selection medium containing 10 μg/ml blasticidin (Thermo Fisher Sci) for one week. The selection process was repeated once to establish stable GFP-KAP1 expressing cell lines.\nFor immunostaining, mouse ESCs were cultured on Geltrex-coated coverslips (Life Technologies) in DMEM supplemented with 16% fetal bovine serum, 0.1 mM β-mercaptoethanol (Invitrogen), 2 mM L-glutamine, 1× MEM non-essential amino acids, 100 U/ml penicillin, 100 µg/ml streptomycin (PAA), 2i (1 μM PD032591 and 3 μM CHIR99021 (Axon Medchem, Netherlands) and 1000 U/ml recombinant LIF (Millipore). Coverslips were rinsed twice with PBS (pH 7.4; 140 mM NaCl, 2.7 mM KCl, 6.5 mM Na2HPO4, 1.5 mM KH2PO4), followed by fixation with 3.7% formaldehyde (Sigma) for 10 min. Fixed cells were washed three times (10 min each) with PBST (PBS + 0.01% Tween-20), permeabilized in 0.5% Triton X-100 for 10 min, and washed twice (10 min each) with PBST. Primary and secondary antibodies were prepared in blocking solution (PBST + 3% BSA). […]"}, "[2]": {"tested_on": "DNA-induced HP1α phase separated droplets", "test": "in vitro droplet assay", "conditions": "50 µM HP1α, 0.18 µM 601 DNA", "source_text": "For droplet assays, cDNA of full-length HP1α was cloned into a pET28 expression vector. His-tag fusion HP1α was expressed in E. coli and purified as in ref. [51]. cDNA of the KAP1FR fragment (aa 114–834) was cloned into a pCAG-GFP expression vector, and the P486A/V488A/L490A mutant of GFP-KAP1FR was generated using overlap extension PCR. Purification of GFP-KAP1FR proteins was described in ref. [52].\nFor the droplet assay, Widom 601 DNA was amplified by PCR using a plasmid coding for 12× 601 DNA with primers as follows: 601 DNA_F: […] and 601 DNA_R: TGCACAGGATGTATATATCTGACAC. HP1α was concentrated to ~10 µg/µl using Amicon concentrators. The buffer changes for both HP1α and GFP-KAP1FR solutions were carried out using Zeba™ Spin Desalting Columns with a buffer containing 20 mM HEPES at pH 7.2, 75 mM KCl, and 1 mM DTT. For visualization of His-tagged-HP1α within the droplets, 500 ng of protein was labeled with the 647 N fluorescent label using the Monolith NT™ Protein Labeling Kit RED-NHS from Nano Temper. To form HP1α droplets, 50 µM of HP1α was incubated with 0.18 µM of 601 DNA for 3 min and dropped into ibidi chamber (µ-Slide 18 Well). Subsequently, 50 ng of the labeled HP1α and 100 ng of GFP-KAP1FR (wild type or mutant) were added into HP1α/DNA droplets. The images of the droplets were collected using a Nikon TiE microscope equipped with a Yokogawa CSU-W1 spinning-disk confocal unit (50 μm pinhole size), an Andor Borealis illumination unit, Andor ALC600 laser beam combiner (405 nm/488 nm/561 nm/640 nm), Andor IXON 888 Ultra EMCCD camera, and a Nikon 100×/1.45 NA oil immersion objective. The size and intensity of HP1α phase-separated droplets were analyzed using ImageJ."}}, "data": [{"molecule": "GFP-KAP1FR-PVLmut: P486A/V488A/L490A mutant of GFP-KAP1FR impaired in HP1α binding (protein, left off: GFP, end not stated, kept) VVDCPVCKQQCFSKDIVENYFMRDSGSKAATDAQDANQCCTSCEDNAPATSYCVECSEPLCETCVEAHQRVKYTKDHTVRSTGPAKSRDGERTVYCNVHKHEPLVLFCESCDTLTCRDCQLNAHKDHQYQFLEDAVRNQRKLLASLVKRLGDKHATLQKSTKEVRSSIRQVSDVQKRVQVDVKMAILQIMKELNKRGRVLVNDAQKVTEGQQERLERQHWTMTKIQKHQEHILRFASWALESDNNTALLLSKKLIYFQLHRALKMIVDPVEPHGEMKFQWDLNAWTKSAEAFGKIVAERPGTNSTGPAPMAPPRAPGPLSKQGSGSSQPMEVQEGYGFGSGDDPYSSAEPHVSGVKRSRSGEGEVSGLMRKVARASAERLDLDLTADSQPPVFKVFPGSTTEDYNLIVIERGAAAAATGQPGTAPAGTPGAPPLAGMAIVKEEETEAAIGAPPTATEGPETKPVLMALAEGPGAEGPRLASPSGSTSSGLEVVAPEGTSAPGGGPGTLDDSATICRVCQKPGDLVMCNQCEFCFHLDCHLPALQDVPGEEWSCSLCHVLPDLKEEDGSLSLDGADSTGVVAKLSPANQRKCERVLLALFCHEPCRPLHQLATDSTFSLDQPGGTLDLTLIRARLQEKLSPPYSSPQEFAQDVGRMFKQFNKLTEDKADVQSIIGLQRFFETRMNEAFGDTKFSAVLVEPPPMSLPGAGLSSQELSGGPGDG", "values": [{"measurement": "distribution of endogenous HP1α (puncta)", "setting": "[1]", "value": "more dispersed and formed smaller and fewer puncta"}, {"measurement": "sequestration of 647N labeled HP1α into droplets", "setting": "[2]; 20 mM HEPES pH 7.2, 75 mM KCl, 1 mM DTT, 100 ng GFP-KAP1FR, 50 ng labeled HP1α", "value": "unable to sequester 647N labeled HP1α into the condensed phase"}, {"measurement": "localization of GFP-KAP1FR in droplets", "setting": "[2]; confocal microscopy", "value": "concentrated at the periphery of the droplets"}]}]}
